Consider one molecule from patent publication US20200061153A1 (BAYLOR COLLEGE OF MEDICINE, published 2020).

The target of experiment [1] is T1, soluble recombinant human vimentin (srhVim), full length, expressed from pET30 in E. coli (human, UniProt P08670 2-466).
T1 construct: also called full length vimentin; full-length Vimentin; not shown: His tag from pET30 (Ni2+ purification, anti-His detection)
The experiment can be described thus: ELISA, wells coated with PSGL-1/Fc 10 µg/mL, srhVim added at rising concentrations, detection with anti-His/HRP. The procedure:
The observations in these experiments, in certain embodiments, are attributed to srhVim either affecting P-selectin, PSGL-1, or both. ELISA was performed by coating 96-well plates with either PSGL-1/Fc protein (10 μg/mL), P-selectin/Fc protein (10 μg/mL), or BSA (10 μg/mL) and adding various concentrations of srhVim to each well. Detection was through anti-His/HRP antibodies. Increasing amounts of srhVim bound to P-selectin/Fc protein and reached saturation at 20 μg/mL. There was no binding of srhVim to PSGL-1/Fc (FIG. 6B).

For experiment [2], the target named is T2, recombinant human vimentin (rhVim), expressed from pQE-30 in E. coli M15 (human, UniProt P08670 2-466).
T2 construct: also called pQE-30-hVim product; not shown: polyhistidine tag from pQE-30 (Ni2+ purification, anti-polyhistidine detection)
The experiment can be described thus: ELISA, wells coated with PSGL-1/Fc 10 µg/mL in DPBS, blocked with 1% BSA, rhVim added at rising concentrations, detection with HRP-conjugated anti-polyhistidine antibody. As to the method: rhVim binding assay—To determine which proteins to which rhVim binds, we performed enzyme linked immunosorbent assays (ELISA) as we described (Da, et al., 2014). Immunoplate wells were coated overnight at 4° C. with P-selectin/Fc or PSGL-1/Fc (10 μg/ml in DPBS). Wells were washed with DPBS and then blocked with 1% BSA for one hour. After blocking, rhVim was added in increasing concentrations and detected using a HRP-conjugated anti-polyhistidine antibody. Tetramethylbenzidine solution was used as the substrate and the reactions were stopped using 1 N sulfuric acid. All ELISA measurements were performed in duplicate and the data reported were averaged from two separate experiments performed.
The effect of rhVim blocking PMN adhesion to P-selectin could be attributed to rhVim either affecting P-selectin, PSGL-1, or both. Therefore, ELISAs were performed with wells coated either PSGL-1/Fc protein (10 μg/mL) or P-selectin/Fc protein (10 μg/mL) and incubated with increasing concentrations of rhVim to each well. Increasing amounts of rhVim bound to P-selectin/Fc protein and reached saturation at 20 μg/mL. There was no binding of rhVim to PSGL-1/Fc at any concentration (FIG. 15C).

T2 sequence (P08670 2-466): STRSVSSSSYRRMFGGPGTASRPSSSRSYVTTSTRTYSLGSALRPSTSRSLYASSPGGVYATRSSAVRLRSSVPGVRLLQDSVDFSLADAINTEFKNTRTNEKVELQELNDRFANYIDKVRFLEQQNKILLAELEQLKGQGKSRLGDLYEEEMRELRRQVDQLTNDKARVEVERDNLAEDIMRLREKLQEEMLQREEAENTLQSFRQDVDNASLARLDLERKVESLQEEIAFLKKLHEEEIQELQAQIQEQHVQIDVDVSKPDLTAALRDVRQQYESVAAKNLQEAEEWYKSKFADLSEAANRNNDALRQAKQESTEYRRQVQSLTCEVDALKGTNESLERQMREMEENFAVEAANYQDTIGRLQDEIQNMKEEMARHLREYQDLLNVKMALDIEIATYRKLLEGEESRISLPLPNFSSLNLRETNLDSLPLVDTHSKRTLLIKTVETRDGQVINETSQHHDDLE
T1 sequence (P08670 2-466): as above

B1: PSGL-1/Fc protein (Fc fusion, UniProt Q14242 42-295, looked up)
chain: QATEYEYLDYDFLPETEPPEMLRNSTDTTPLTGPGTPESTTVEPAARRSTGLDAGGAVTELTTELANMGNLSTDSAAMEIQTTQPAATEAQTTQPVPTEAQTTPLAATEAQTTRLTATEAQTTPLAATEAQTTPPAATEAQTTQPTGLEAQTTAPAAMEAQTTAPAAMEAQTTPPAAMEAQTTQTTAMEAQTTAPEATEAQTTQPTATEAQTTPLAAMEALSTEPSATEALSMEPTTKRGLFIPFSVSSVTHKG
notes: Bought from R & D Systems; the species is not clearly stated; not shown: Fc part
For the molecule B1, the binding result in experiment [1] and in experiment [2] was “no binding (tested: 40 µg/mL)” in each case.
